In paper PMC13397619:

B1: NLV3 TCR beta chain (CDR3β only) (parent)
chain: ASSPTGGSPSPLH
partner: NLCPMVATV

Variants of: B1
Test: T-Switch: Jurkat TCRβ−/− cells expressing a CDR3 saturation-mutagenesis library, stained with two peptide-HLA-A*02:01 tetramers (original and novel peptide) plus anti-CD3, FACS-sorted into four gates, gDNA sequenced
Conditions: with HLA-A*02:01 with peptide … (NLV 2-1, the novel peptide), tetramers 1 µg/mL, 30 min on ice, SP, DP and SW gates expanded about 10 days between rounds ('two to three rounds of selection' in the Methods), gate SW: higher = more of the variant in the gate that binds the novel peptide and not the original one = switched binding. Fold enrichment of the CDR3 variant in one FACS gate of a two-tetramer stain, unresolved parent, parent is a CDR3 fragment, scale: fold enrichment, numbering: sequential-on-construct, sequence starts at 1

Variant	enrichment
[…] (CDR3 as printed); G6A derived by comparing it with the table's wild-type CDR3 ASSPTGGSPSPLH	0
[…] (CDR3 as printed); P4H derived by comparing it with the table's wild-type CDR3 ASSPTGGSPSPLH	0
[…] (CDR3 as printed); S8N derived by comparing it with the table's wild-type CDR3 ASSPTGGSPSPLH	0
[…] (CDR3 as printed); S2K derived by comparing it with the table's wild-type CDR3 ASSPTGGSPSPLH	0
[…] (CDR3 as printed); L12M derived by comparing it with the table's wild-type CDR3 ASSPTGGSPSPLH	0
[…] (CDR3 as printed); P4Q derived by comparing it with the table's wild-type CDR3 ASSPTGGSPSPLH	0
[…] (CDR3 as printed); S2M derived by comparing it with the table's wild-type CDR3 ASSPTGGSPSPLH	0
[…] (CDR3 as printed); H13R derived by comparing it with the table's wild-type CDR3 ASSPTGGSPSPLH	0
[…] (CDR3 as printed); S8Y derived by comparing it with the table's wild-type CDR3 ASSPTGGSPSPLH	0
[…] (CDR3 as printed); H13V derived by comparing it with the table's wild-type CDR3 ASSPTGGSPSPLH	0
[…] (CDR3 as printed); T5W derived by comparing it with the table's wild-type CDR3 ASSPTGGSPSPLH	0
[…] (CDR3 as printed); A1M derived by comparing it with the table's wild-type CDR3 ASSPTGGSPSPLH	0
[…] (CDR3 as printed); P4Y derived by comparing it with the table's wild-type CDR3 ASSPTGGSPSPLH	0
[…] (CDR3 as printed); S3A derived by comparing it with the table's wild-type CDR3 ASSPTGGSPSPLH	0
[…] (CDR3 as printed); S3T derived by comparing it with the table's wild-type CDR3 ASSPTGGSPSPLH	0
[…] (CDR3 as printed); G6E derived by comparing it with the table's wild-type CDR3 ASSPTGGSPSPLH	0
[…] (CDR3 as printed); P11A derived by comparing it with the table's wild-type CDR3 ASSPTGGSPSPLH	0
[…] (CDR3 as printed); T5G derived by comparing it with the table's wild-type CDR3 ASSPTGGSPSPLH	0
[…] (CDR3 as printed); S2C derived by comparing it with the table's wild-type CDR3 ASSPTGGSPSPLH	0
[…] (CDR3 as printed); S3M derived by comparing it with the table's wild-type CDR3 ASSPTGGSPSPLH	0
[…] (CDR3 as printed); S3H derived by comparing it with the table's wild-type CDR3 ASSPTGGSPSPLH	0

Variant	enrichment
[…] (CDR3 as printed); S10E derived by comparing it with the table's wild-type CDR3 ASSPTGGSPSPLH	0
[…] (CDR3 as printed); G7V derived by comparing it with the table's wild-type CDR3 ASSPTGGSPSPLH	0
[…] (CDR3 as printed); G7D derived by comparing it with the table's wild-type CDR3 ASSPTGGSPSPLH	0
[…] (CDR3 as printed); S2Y derived by comparing it with the table's wild-type CDR3 ASSPTGGSPSPLH	0
[…] (CDR3 as printed); S8D derived by comparing it with the table's wild-type CDR3 ASSPTGGSPSPLH	0
[…] (CDR3 as printed); P9I derived by comparing it with the table's wild-type CDR3 ASSPTGGSPSPLH	0
[…] (CDR3 as printed); P4A derived by comparing it with the table's wild-type CDR3 ASSPTGGSPSPLH	0
[…] (CDR3 as printed); T5L derived by comparing it with the table's wild-type CDR3 ASSPTGGSPSPLH	0
[…] (CDR3 as printed); P9F derived by comparing it with the table's wild-type CDR3 ASSPTGGSPSPLH	0
[…] (CDR3 as printed); S2R derived by comparing it with the table's wild-type CDR3 ASSPTGGSPSPLH	0
[…] (CDR3 as printed); S3G derived by comparing it with the table's wild-type CDR3 ASSPTGGSPSPLH	0
[…] (CDR3 as printed); G6I derived by comparing it with the table's wild-type CDR3 ASSPTGGSPSPLH	0
[…] (CDR3 as printed); P11R derived by comparing it with the table's wild-type CDR3 ASSPTGGSPSPLH	0
[…] (CDR3 as printed); T5Y derived by comparing it with the table's wild-type CDR3 ASSPTGGSPSPLH	0
[…] (CDR3 as printed); P11F derived by comparing it with the table's wild-type CDR3 ASSPTGGSPSPLH	0
[…] (CDR3 as printed); P11K derived by comparing it with the table's wild-type CDR3 ASSPTGGSPSPLH	0
[…] (CDR3 as printed); T5A derived by comparing it with the table's wild-type CDR3 ASSPTGGSPSPLH	0
[…] (CDR3 as printed); P9L derived by comparing it with the table's wild-type CDR3 ASSPTGGSPSPLH	0
[…] (CDR3 as printed); G6V derived by comparing it with the table's wild-type CDR3 ASSPTGGSPSPLH	0
[…] (CDR3 as printed); P11M derived by comparing it with the table's wild-type CDR3 ASSPTGGSPSPLH	0

Same assay, conditions: with HLA-A*02:01 with peptide … (NLV 2-1, the novel peptide), tetramers 1 µg/mL, 30 min on ice, SP, DP and SW gates expanded about 10 days between rounds ('two to three rounds of selection' in the Methods), gate SW: higher = more of the variant in the gate that binds the novel peptide and not the original one = switched binding. Fold enrichment of the CDR3 variant in one FACS gate of a two-tetramer stain, unresolved parent, parent is a CDR3 fragment, zero in all gates, scale: fold enrichment, numbering: sequential-on-construct, …

Variant	enrichment
[…] (CDR3 as printed); S2L derived by comparing it with the table's wild-type CDR3 ASSPTGGSPSPLH	0
